{"source": "paper PMC11233663", "about": "“ZBP1 condensate formation synergizes Z-NAs recognition and signal transduction” (Cell Death & Disease, 2024)", "molecules": {"B1": {"name": "ZBP1-RHIM1 + 2 AAAA (domain or fragment, human, UniProt Q9H171 168-280, looked up)", "chain": "EDSGRRAKSASIIYQHNPINMICQNGPNSWISIANSEAAAAAHGNIITRQTVSREDGSAGPRHLPSMAPGDSSTWGTLVDPWGPQDIHMEQSILRRVQLGHSNEMRLHGVPSE", "notes": "also called 4 A mutant of RHIM 1 + 2; 4 A; source: E. coli BL21 Codonplus (DE3)-RIPL, purified (Ni-NTA, Superdex 200 10/300)"}, "B2": {"name": "ZBP1-RHIM 1 + 2 (residues 168-280) (domain or fragment, human, UniProt Q9H171 168-280, looked up)", "chain": "EDSGRRAKSASIIYQHNPINMICQNGPNSWISIANSEAIQIGHGNIITRQTVSREDGSAGPRHLPSMAPGDSSTWGTLVDPWGPQDIHMEQSILRRVQLGHSNEMRLHGVPSE", "notes": "the tag is inferred from the purification; also called RHIM 1 + 2 high-oligomer seed; source: E. coli BL21 Codonplus (DE3)-RIPL, purified (Ni-NTA, Superdex 200 10/300)"}, "B3": {"name": "ZBP1-RHIM1 AAAA (domain or fragment, human, UniProt Q9H171 168-224, looked up)", "chain": "EDSGRRAKSASIIYQHNPINMICQNGPNSWISIANSEAAAAAHGNIITRQTVSREDG", "notes": "also called 4 A mutant of ZBP1-RHIM 1; 4 A; source: E. coli BL21 Codonplus (DE3)-RIPL, purified (Ni-NTA, Superdex 200 10/300)"}, "B4": {"name": "ZBP1-RHIM1 (residues 168-224) (domain or fragment, human, UniProt Q9H171 168-224, looked up)", "chain": "EDSGRRAKSASIIYQHNPINMICQNGPNSWISIANSEAIQIGHGNIITRQTVSREDG", "notes": "the tag is inferred from the purification; source: E. coli BL21 Codonplus (DE3)-RIPL, purified (Ni-NTA, Superdex 200 10/300)"}, "B5": {"name": "Z-RNA (structured_RNA)", "RNA": "ACGCGCGCGCGUUUUUGCGCGCGCGC", "modifications": "2'-O-methyl-8-methylguanosine (m8Gm), positions not given"}}, "key": {"Thioflavin T (ThT)": {"biological_target": "Thioflavin T (ThT)", "test": "ThT binding assay (ThT fluorescence emission spectrum)", "conditions": "read off a plot"}, "[1]": {"biological_target": "human ZBP1-Zαβ (residues 1-166) (human) (UniProt Q9H171)", "test": "SAXS; ZBP1-Zαβ at 5 mg/mL, 20 mM Tris-HCl pH 7.4, 100 mM NaCl"}, "[2]": {"biological_target": "human ZBP1-Zαβ (residues 1-166) (human) (UniProt Q9H171)", "test": "dynamic light scattering; ZBP1-Zαβ at 5 mg/mL (high concentration), 20 mM Tris-HCl pH 7.4, 100 mM NaCl, room temperature"}, "[3]": {"biological_target": "the molecule itself", "test": "negative-staining electron microscopy; purified proteins on carbon films, 0.2% uranyl acetate"}, "[4]": {"biological_target": "the molecule itself", "test": "SEC; Superdex 200 10/300, 20 mM Tris-HCl, 1 M NaCl, pH 7.5; elution at the void position"}, "mCherry-ZBP1-Zαβ": {"biological_target": "T1, mCherry-ZBP1-Zαβ (Homo sapiens, UniProt Q9H171 1-166)", "T1 sequence": "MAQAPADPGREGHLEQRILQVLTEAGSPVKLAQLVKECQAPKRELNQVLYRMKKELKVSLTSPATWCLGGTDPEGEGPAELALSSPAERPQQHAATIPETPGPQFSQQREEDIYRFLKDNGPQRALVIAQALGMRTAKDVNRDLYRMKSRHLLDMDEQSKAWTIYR", "test": "in vitro co-condensation (microscopy); Z-RNA promotes condensates; EMSA: protein 0, 5, 10, 20 nM with 10 nM dsDNA, on ice 1 h, 6% polyacrylamide; protein and DNA stocks in 20 mM Tris-HCl pH 7.4, 100 mM NaCl", "conditions": "protein: recombinant; tags: mCherry fusion; label: 5'-FAM"}}, "data": [{"molecule": "ZBP1-RHIM1 (residues 168-224) (from UniProt Q9H171) I206A; Q207A; I208A; G209A", "values": [{"measurement": "response", "setting": "Thioflavin T (ThT); parent: est. 1900", "result": 1200}]}, {"molecule": "human ZBP1-Zαβ (residues 1-166) (from UniProt Q9H171 1-166) (domain or fragment)", "values": [{"measurement": "stoichiometry N", "setting": "[1]", "result": 2}, {"measurement": "stoichiometry N", "setting": "[2]", "result": 2}]}, {"molecule": "ZBP1-RHIM 1 + 2 (residues 168-280) (from UniProt Q9H171) I206A; Q207A; I208A; G209A", "values": [{"measurement": "response", "setting": "Thioflavin T (ThT); parent: est. 2300", "result": 880}]}, {"molecule": "B1", "values": [{"measurement": "binding result", "setting": "[3]", "result": "binds"}]}, {"molecule": "B2", "values": [{"measurement": "binding result", "setting": "[4]", "result": "binds"}]}, {"molecule": "B3", "values": [{"measurement": "binding result", "setting": "[3]", "result": "binds"}]}, {"molecule": "B4", "values": [{"measurement": "binding result", "setting": "[4]", "result": "binds"}]}, {"molecule": "B5", "values": [{"measurement": "binding result", "setting": "mCherry-ZBP1-Zαβ", "result": "binds"}]}]}
